Data taken from the supplement of paper PMC9112550, “Optimization of the antimicrobial peptide Bac7 by deep mutational scanning” (BMC Biology, 2022).

Test system: Escherichia coli TOP10
Assay: shrunken log2 fold change of peptide-encoding DNA abundance (4.5 h post-induction vs induction); higher = less antimicrobial activity (less host growth inhibition)
Details: time post-induction: 4.5 h; library: site-saturation at positions 5, 18, 19, 20
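Further: peptides expressed intracellularly from a pBAD plasmid library in pooled LB shake-flask culture, induced with 0.3% L-arabinose, DNA abundance read by NGS, three biological replicates, DESeq2 with apeglm shrinkage.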

RRIRDRPPRLPRPRPRPREHPRP
shrunken log2 fold change: -0.118

RRIRARPPRLPRPRPRPKRVPRP
shrunken log2 fold change: 0.455

RRIRERPPRLPRPRPRPHGTPRP
shrunken log2 fold change: 0.0284

RRIRHRPPRLPRPRPRPAPHPRP
shrunken log2 fold change: 0.223

RRIRARPPRLPRPRPRPHMKPRP
shrunken log2 fold change: -0.188

RRIRCRPPRLPRPRPRPTDIPRP
shrunken log2 fold change: -0.623

RRIRIRPPRLPRPRPRPSVSPRP
shrunken log2 fold change: -0.0804

RRIRMRPPRLPRPRPRPPGYPRP
shrunken log2 fold change: 0.599

RRIRSRPPRLPRPRPRPHWSPRP
shrunken log2 fold change: -0.0455

RRIRKRPPRLPRPRPRPHIVPRP
shrunken log2 fold change: -0.0154

RRIRMRPPRLPRPRPRPYFDPRP
shrunken log2 fold change: -1.09

RRIRQRPPRLPRPRPRPAADPRP
shrunken log2 fold change: 0.0593

RRIRPRPPRLPRPRPRPNHKPRP
shrunken log2 fold change: -0.385

RRIRERPPRLPRPRPRPCQAPRP
shrunken log2 fold change: -0.0282

RRIRERPPRLPRPRPRPEHSPRP
shrunken log2 fold change: -0.312

RRIRERPPRLPRPRPRPCKAPRP
shrunken log2 fold change: -0.0137

RRIRDRPPRLPRPRPRPCQEPRP
shrunken log2 fold change: 0.211

RRIRSRPPRLPRPRPRPVNLPRP
shrunken log2 fold change: -0.0294

RRIRHRPPRLPRPRPRPLSYPRP
shrunken log2 fold change: -0.895

RRIRDRPPRLPRPRPRPNNRPRP
shrunken log2 fold change: -0.178

RRIRNRPPRLPRPRPRPFQYPRP
shrunken log2 fold change: -0.0242

RRIRIRPPRLPRPRPRPFRNPRP
shrunken log2 fold change: -0.902

RRIRRRPPRLPRPRPRPAMKPRP
shrunken log2 fold change: 0.373

RRIRWRPPRLPRPRPRPPEAPRP
shrunken log2 fold change: 0.428

RRIRYRPPRLPRPRPRPGFNPRP
shrunken log2 fold change: -0.46

RRIRERPPRLPRPRPRPGGIPRP
shrunken log2 fold change: 0.0836

RRIRIRPPRLPRPRPRPVTGPRP
shrunken log2 fold change: -0.37

RRIRCRPPRLPRPRPRPFSGPRP
shrunken log2 fold change: -0.275

RRIRYRPPRLPRPRPRPNWKPRP
shrunken log2 fold change: 0.138

RRIRKRPPRLPRPRPRPCVWPRP
shrunken log2 fold change: 0.205

RRIRKRPPRLPRPRPRPCETPRP
shrunken log2 fold change: -0.0599

RRIRNRPPRLPRPRPRPIVMPRP
shrunken log2 fold change: -0.0105

RRIRGRPPRLPRPRPRPNVEPRP
shrunken log2 fold change: 0.183

RRIRSRPPRLPRPRPRPSYFPRP
shrunken log2 fold change: -0.687

RRIRHRPPRLPRPRPRPTPFPRP
shrunken log2 fold change: 0.177

RRIRARPPRLPRPRPRPFVRPRP
shrunken log2 fold change: -0.0552

RRIRHRPPRLPRPRPRPPDCPRP
shrunken log2 fold change: 0.182

RRIRIRPPRLPRPRPRPSQCPRP
shrunken log2 fold change: -0.0584

RRIRKRPPRLPRPRPRPFSRPRP
shrunken log2 fold change: 0.238

RRIRLRPPRLPRPRPRPTYCPRP
shrunken log2 fold change: -1

RRIRNRPPRLPRPRPRPILHPRP
shrunken log2 fold change: -0.684

RRIRMRPPRLPRPRPRPMKTPRP
shrunken log2 fold change: -0.00191

RRIRYRPPRLPRPRPRPVQQPRP
shrunken log2 fold change: -0.00101

RRIRCRPPRLPRPRPRPHQFPRP
shrunken log2 fold change: 0.0354

RRIRRRPPRLPRPRPRPEAGPRP
shrunken log2 fold change: 0.731

RRIRRRPPRLPRPRPRPVYMPRP
shrunken log2 fold change: -0.0789

RRIRMRPPRLPRPRPRPTEHPRP
shrunken log2 fold change: 0.443

RRIRARPPRLPRPRPRPDLCPRP
shrunken log2 fold change: 0.393

RRIRKRPPRLPRPRPRPCWAPRP
shrunken log2 fold change: 0.114

RRIRWRPPRLPRPRPRPWFAPRP
shrunken log2 fold change: 0.135

RRIRGRPPRLPRPRPRPWHQPRP
shrunken log2 fold change: 1.75

RRIRDRPPRLPRPRPRPLKQPRP
shrunken log2 fold change: 0.681

RRIRFRPPRLPRPRPRPELQPRP
shrunken log2 fold change: 0.348

RRIRARPPRLPRPRPRPVISPRP
shrunken log2 fold change: 0.0798

RRIRRRPPRLPRPRPRPRCTPRP
shrunken log2 fold change: 0.0974

RRIRLRPPRLPRPRPRPQPIPRP
shrunken log2 fold change: 0.0892

RRIRPRPPRLPRPRPRPTAHPRP
shrunken log2 fold change: 0.231

RRIRARPPRLPRPRPRPRWRPRP
shrunken log2 fold change: 0.934

RRIRKRPPRLPRPRPRPCSTPRP
shrunken log2 fold change: 0.0274

RRIRTRPPRLPRPRPRPWGIPRP
shrunken log2 fold change: -0.0774

RRIRYRPPRLPRPRPRPRIQPRP
shrunken log2 fold change: -0.203

RRIRIRPPRLPRPRPRPASHPRP
shrunken log2 fold change: -0.106

RRIRYRPPRLPRPRPRPLESPRP
shrunken log2 fold change: -0.0422

RRIRLRPPRLPRPRPRPARTPRP
shrunken log2 fold change: 0.468

RRIRERPPRLPRPRPRPHLYPRP
shrunken log2 fold change: -0.858

RRIRQRPPRLPRPRPRPWEIPRP
shrunken log2 fold change: -0.00822

RRIRMRPPRLPRPRPRPLMAPRP
shrunken log2 fold change: 2.47

RRIRPRPPRLPRPRPRPGGEPRP
shrunken log2 fold change: 0.601

RRIRPRPPRLPRPRPRPVHEPRP
shrunken log2 fold change: 0.497

RRIRGRPPRLPRPRPRPADGPRP
shrunken log2 fold change: -0.133

RRIRVRPPRLPRPRPRPDMFPRP
shrunken log2 fold change: 0.0441

RRIRDRPPRLPRPRPRPNMVPRP
shrunken log2 fold change: 0.136

RRIRRRPPRLPRPRPRPRMWPRP
shrunken log2 fold change: 0.431

RRIRNRPPRLPRPRPRPVQRPRP
shrunken log2 fold change: -0.186

RRIRHRPPRLPRPRPRPITYPRP
shrunken log2 fold change: -0.184

RRIRFRPPRLPRPRPRPAPVPRP
shrunken log2 fold change: 0.323

RRIRYRPPRLPRPRPRPFPGPRP
shrunken log2 fold change: -0.253

RRIRGRPPRLPRPRPRPIEPPRP
shrunken log2 fold change: 0.491

RRIRYRPPRLPRPRPRPWFGPRP
shrunken log2 fold change: -0.0933

RRIRMRPPRLPRPRPRPSNSPRP
shrunken log2 fold change: -0.192

RRIRNRPPRLPRPRPRPVCSPRP
shrunken log2 fold change: -0.19

RRIRWRPPRLPRPRPRPTEVPRP
shrunken log2 fold change: 0.0181

RRIRFRPPRLPRPRPRPSKIPRP
shrunken log2 fold change: 0.903

RRIRTRPPRLPRPRPRPHFVPRP
shrunken log2 fold change: -0.239

RRIRRRPPRLPRPRPRPHGRPRP
shrunken log2 fold change: 0.0549

RRIRARPPRLPRPRPRPCGGPRP
shrunken log2 fold change: 0.425

RRIRSRPPRLPRPRPRPMVWPRP
shrunken log2 fold change: 0.0214

RRIRYRPPRLPRPRPRPDLHPRP
shrunken log2 fold change: -0.0267

RRIRRRPPRLPRPRPRPYYLPRP
shrunken log2 fold change: -0.308

RRIRKRPPRLPRPRPRPCLLPRP
shrunken log2 fold change: -0.037

RRIRCRPPRLPRPRPRPTMRPRP
shrunken log2 fold change: 0.529

RRIRWRPPRLPRPRPRPCTAPRP
shrunken log2 fold change: 0.119

RRIRKRPPRLPRPRPRPRFWPRP
shrunken log2 fold change: 1.42

RRIRSRPPRLPRPRPRPGDIPRP
shrunken log2 fold change: -0.198

RRIRRRPPRLPRPRPRPDVQPRP
shrunken log2 fold change: -0.0867

RRIRNRPPRLPRPRPRPHCPPRP
shrunken log2 fold change: -1.27

RRIRYRPPRLPRPRPRPQVVPRP
shrunken log2 fold change: -0.166

RRIRARPPRLPRPRPRPWKLPRP
shrunken log2 fold change: -0.36

RRIRKRPPRLPRPRPRPDCSPRP
shrunken log2 fold change: -0.0754

RRIRNRPPRLPRPRPRPAYAPRP
shrunken log2 fold change: -0.236

RRIRCRPPRLPRPRPRPGYCPRP
shrunken log2 fold change: -0.0918

RRIRGRPPRLPRPRPRPKIHPRP
shrunken log2 fold change: 0.373

RRIRYRPPRLPRPRPRPAGIPRP
shrunken log2 fold change: -0.359

RRIRERPPRLPRPRPRPPNHPRP
shrunken log2 fold change: -0.288

RRIRRRPPRLPRPRPRPSWMPRP
shrunken log2 fold change: -0.324

RRIRIRPPRLPRPRPRPMMAPRP
shrunken log2 fold change: 0.0709

RRIRARPPRLPRPRPRPVCNPRP
shrunken log2 fold change: 0.0721

RRIRARPPRLPRPRPRPDDIPRP
shrunken log2 fold change: 0.0386

RRIRFRPPRLPRPRPRPIKFPRP
shrunken log2 fold change: -0.587
